Test results published in publication PMC6662822, “Rational drug-design approach supported with thermodynamic studies — a peptide leader for the efficient bi-substrate inhibitor of protein kinase CK2” (Scientific Reports, 2019).
Where no end group is shown, it is not given here. 7‑COOH‑Br3Bt = not defined here

Target: catalytic subunit of human protein kinase CK2 (human) (UniProt P68400)
Sequence (P68400 whole entry): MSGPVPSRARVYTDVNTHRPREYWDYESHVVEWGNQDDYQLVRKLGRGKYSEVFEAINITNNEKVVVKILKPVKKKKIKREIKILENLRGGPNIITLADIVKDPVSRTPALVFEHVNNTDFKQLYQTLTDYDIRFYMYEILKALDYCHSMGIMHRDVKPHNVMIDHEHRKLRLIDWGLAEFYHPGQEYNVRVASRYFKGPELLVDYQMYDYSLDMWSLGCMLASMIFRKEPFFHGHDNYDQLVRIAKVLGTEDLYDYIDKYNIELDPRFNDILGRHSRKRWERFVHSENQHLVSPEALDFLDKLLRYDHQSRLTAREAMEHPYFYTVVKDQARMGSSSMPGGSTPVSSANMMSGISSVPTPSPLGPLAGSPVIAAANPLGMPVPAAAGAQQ

Q: K(7‑COOH‑Br3Bt)ESEEE-NH2 (reading uncertain) [bi-substrate inhibitor (KESEEE-NH2 conjugated with 7-COOH-Br3Bt)] was tested. Which IC50 of inhibition of hCK2α kinase activity (ADP-Glo assay; 10 μM substrate peptide …, 10 μM ATP, 30 °C) did it give?
A: Its IC50 of inhibition of hCK2α kinase activity (ADP-Glo assay; 10 μM substrate peptide …, 10 μM ATP, 30 °C) is 670 nM.
